Data published in PMC9696579 (Nature structural & molecular biology, 2022).
Where no end group is shown, it is not given here. 3xPEG = linker of three PEG units

Legend:
[1] = target: mouse PKA-Cα (PKA catalytic subunit alpha), purified (mouse, UniProt P05132 1-351); test: fluorescence polarisation
[2] = target: human PKA-Cα (PKA catalytic subunit alpha), purified, used in fluorescence polarization (human, UniProt P17612 1-351); test: fluorescence polarisation

B1: FAM-labeled standard SMO PKI peptide (SMO residues 615–638) (peptide)
peptide: {FAM-3xPEG}-SADVSSAWAQHVTKMVARRGAILP
- Kd [1]: 911 nM
- Kd [2]: 823 nM
